Source: paper PMC7354611

Target: Bacillus cereus MazF (mRNA interferase BC0266) (Bacillus cereus)
Experiment: SEC; Superdex 75 10/300 GL column, with reference proteins of the Gel Filtration Calibration Kits (GE Healthcare); His-tagged MazF eluted at almost the same time as carbonic anhydrase (29 kDa)

Question: For “Bacillus cereus MazF (mRNA interferase BC0266) (natural protein)”, which stoichiometry N is on record?
Answer: 2
